Data from the supplement of paper PMC12636428.

test system: Saccharomyces cerevisiae; experiment: transcriptional activation domain activity (GFP:mCherry ratio, weighted mean of sorted bins, harmonized to initial dataset scale) (arbitrary fluorescence ratio units); higher = stronger transcriptional activation; details: beta-estradiol 1 µM; induction time 4 h
How it was run: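 After a 1:5 dilution into SC with 1 uM beta-estradiol and 4 hours at 30 °C, yeast diploids carrying a GFP reporter and URA3-integrated barcoded tiles were sorted into 8 bins by GFP:mCherry ratio. The tiles were fused to an estradiol-inducible synthetic transcription factor. Barcodes were sequenced, tiles below 50 reads were discarded, and activation activity was taken as the read-weighted mean of bin median fluorescence, averaged across barcodes and linearly mapped onto the initial dataset scale.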

Sequence | transcriptional activation domain activity
DPPKRGRGRPKGSKNKKSTGVAAAAPAPAAGPSTGEKRKRGRPPKPKPEGEAG | 43800
RLWCFSRGFMLVNYNVLVLSCQLAWSSEFLMSFWTFVFVLILMLLYYFVWAHK | 43700
KHLAEAGLGIAAAGAAKELYDHRKHHRSSSVSSSGGEHNHNGRHIAAAALGAT | 28000
RRKRRRRGGEDEQQAEVEDNDRHRSSRHHRRRRRETSEEKSPRRRATDRRRHP | 34600
ALNITYLFLGTYGWEYFGSCSVECALVCGRLAFRLSLIPYVLGRTSLLIYFIL | 41000
WHVAYPLVATGLCVAPQEFFLKHWLAFLREKGTRSFVLNGMLRLLWTYLYRCQ | 45800
AAAPRAKNAPRGKKQTAAKTAPEPEPEPEAEPAPAPKPRGRQKKTVKASAPEV | 20800
GRRRDNGGRRQGGGRRDGGGGGGGGGGRGRGERGGGGGERGERGGGARPKKTQ | 34900
GSEEDAARAASTSRKRRRASAPRTGDGSDDERESSRAEASAGAGAGAEAKPRR | 18600
LVVKVLNNTAFSPFFTFFIPVLYWSQNQSWSAPTVFWSTAWFLLVCIFSLLKL | 20900
LASRNPPTATSPCTRTPAPAPAPRTASTTRASTPCTASTAPRAATSAACSPAA | 53100
MPMLLIIFPLLYFLYCIHNLFHIISHYYEVFNTFYIVILHLSFLFYLHFILFH | 69500
MPKLNLYKIFLSILCSVVILVVWFPNLESILLLRVLVFHLVKYIGLCLLFFLC | 56000
NAPTADTDIATNLGKERNENFGMLNYNYEALLHFNDEHFNELNSIDPALISKY | 107000
MQTKVFVFPLFLHYLYCVIFHLLWILFGIAFIFSLVSIIIYLLIVFAHLFHFV | 66700
FLVCLLTMEFILHYMYVVAIQGAKAWHGDTPLELSMIGFWNLIVVWLKLLLPW | 18200
MPCLCHFWMTCLCHFRMPLFFYFQMPCLCHFWMTCLCHFLMPCLFYFWMPFLC | 43200
RRVGEVMCFQALLHFLGMLSFWYGVLRRLGFTLINFFLNRVVLLGLLAFICYE | 69500
VYTDLIRIIGDTKPILLDNYHNAMRRTMSVVIGFRVFYYHNEWHRAKGFIRKA | 38400
QKLSWIDNSGFRWLIMPFIWSSFFIQWLAVFFEICIVILQLRVIAWWLGWLVC | 60700
KLSFRLLVLSSSEILVCFPVYPSFVGYDPIFSGFRVKLLIFLLSLWHLLLLFV | 42300

Sequence | transcriptional activation domain activity
LMGLDELHLRVLSSSSDDPQERLNADKVLKLLTKRRHWVLVVLLLGNVIVNES | 35800
ETSDEAKSEDSSSDEGDDSSSSEDDGRKRSRKKSVIKMRKTKAKKTKKKGKKS | 39300
KNGWHIIGSSNNVVAYRLRVYQCMDLTTFFSLQAAFSDCERYFVASAIVLDKK | 38500
MCARSLFCGYIFFLVLYLLAWLGVFPCPFTLFLLSFLFPIFFFLLCWRLAFAC | 45800
RDRKKRKVDGSEDSDDSDDDGTRGKGRGKSKSKGKGKSKEKKKKSSRKSKKAE | < 6570
MAFCSIPFYSPPPPQFRFISTFSPFPRFIIGPLFHPLLARKLFDFLLIFIVSF | 62700
LRKSQDRLWAERPWYFYPMYFNEHGNGIFPEVVHLNDAVVIGVLHYYLIQVLL | 46400
RLDATAEEEAKRQRACEACRALKVRCDRGSDDSPCKRCEKARRECVITQPSRK | 40300
GYIGLSSGYFWSGLLYNVSITISLYCLAMFWVCLHDDLVPFRPVPKFLVIKLV | 53000
PGEVSEAEANGDAPKAEAAVAPDSDEAAKPKKKKKARKPKAAKKGEDGEPAAA | 17100
MDGEPANPAVSAPTTRRRRRRPALVCEQCRVRKIKCDRGSPCSKCARGRRSHL | 42000
RRARSVVEVAQTDDTGEEEDNNINSSNNINNKKKKIILELENGAETLEGDLLL | 16500
MFALLEILCLICILLLTKPRCLCFSIRLEILIFFSFFFFFFCIFLVGYTLSTL | 80600
MSRCNSSMFMSMFDSLGLFLFVIFIFLFFELHSFWWDLFSLFFVFVWFNFSIS | 41400
KKSDEKDDTKPKKKKAKHDDADKESKKKLKKASKEKKSKSTKSKKDTAENAIA | 42900
LGQLLLLLLLLLLLLLLLLLLLLLLLLLLLLLLRRRRRRWWWWRRLLILRIRR | 73200
ELLRVLNKAHIYLMCLYLFSGLDAHMGILRDFKLIDSHYRLSLHTLICVLVSW | 71000
MAIQAFFVICIIKILLYFLFFFFLFLSLLLYTYMYIHICAYVFYKIEKHVKSM | 51000
QDEKHAEREGDTSSADGKEKSQDGDGGEKQKEGEGKPEKRNGVEAGAKNPAVK | 10600
YFMVYFIFYRNLFARLRSFDQFALVQLMSSFWVCIWYPFSMTSLCHRVVQYFN | 69300
AASPEEVIAPKSKRQPRRNTQAVSADPASLTPPADTKPKRSRAPRKAKVTIAE | 13300

Sequence | transcriptional activation domain activity
EGAQDCGESESEGANESEEESEEENVFVVGKILDKRTNGKRKQVEYLVRCESQ | 39600
MGPPFFDGFSDGSSDLGSLFLPNGDSANWDLSWSAETFWQLENEYTSLPSFFD | 144000
MHFAVKVKMQLFFFIFSLTLFFFLWYFFFFFPVVYGVFSSGVLGVFFSLFSFF | 66200
LKQMAGRDFEDILQCIMPVFEGLLPPPHDDLVMSLLFTLAFWHALAKLRLHTE | 56300
NGIFILHHKWVIPTPFASHAFNPFDGFLQSLPYHLYVFMLPMHKWLYLGMFVF | 71400
PAAQFLTEKRDRGGGGKGGEEGGGGSGKKVYKGAAMPNRYGIRPGHRWDGVDR | 28200
RGDGAEDSNRKRRRRSRSPRRSPPDRARERSTTADDAKGTRHRDRSSHRHKDK | 32600
PAHVIFDVVIVCAGYFAREAFEEVVRMTTMCAVGPVFVVQALVRAGKVCTGIG | 76300
FSLGLRTPLDHLLLAFFVLCGLTRLARFNVTVAMLPKDATGKSQYFEGTPIPT | 73300
MLCDATSGLWILLCFFFFCVVLFVLIVSVFSTLPMWMSYSFFFLFVGFDLLLS | 35600
ILVYLSSVKLRNYRGNTYSFIHLTPWVPLDLLKYACDFLGLLSGFNLLPLYFQ | 56300
RKDKSKDTKERDVSKRQRGSSRNKGTKAKGTQTKQNEDEEDIVKTRKSKAKDK | 15200
FITSLMLFQAVPCFLVHVIMLFPFFRNFPHQFRYRDPFTMVLLSFSFIFLFTF | 62700
SISQFCWIWYTRPRPLQDICYYDSASRGPWGCFLLLLRLRFIRFACIGAIITL | 78600
RSLGIVFYFGLLLSFYFEFFFSSIFSFVIIIWLYPIGFLYICLSAAIPFPLLN | 65000
SSRRTKKSRRRRRGSSSSSSEAPSRKQRKAAASSSDEEQDRRARRKGKGKGRV | 30800
PWTFDLGLFGLGLFGLFGLFGLFGLFGLGPFGLGLFGPLDFLALDFLDLWTFW | 18400
FLAYVAKRIVWAIIRTIVYLRRDYLGYLSLGRGRSPSNVRGWLANKWYQFLLL | 50100
RLFSKQLHPRMFRVCLTLIIIVAIWGLTFICLVIFACNPVEKSWHVTMPGKCI | 27500
MDSRPGSFATGVFRAQPVDNTPRKIQKRNRPPVSCLLCRTRKVKCNRQQPCER | 33500
MGVWFGMAVLFLFLHLGFFLFCYFICLLLDNSFFLSWPLETVRALQMGLQIGG | 36700

Sequence | transcriptional activation domain activity
RDVYYILHWVVAFTLVRATVMYKMLEPFIKWYGVRSQHKIMRFGEQGWLTIYY | 59800
PESINYVLEQGSLLSRFTYRFVIFICKLARINQPTYRLLIRFGLLDMILRICV | 87400
RPPVLRLRALTALITVLILLLAAIVVLYRFSERSLLYQTAFIYQAKIPYFNSI | 24500
MSSEKSSRASKTPTPTPAPPGDHRKRRRNRTTQSCLNCHASKRMCDRKRPACQ | 52300
GDGKEEGAQKKKKKKAKKAHGEEGEQEGGDEKAKKKKKKKKKKALGGRARARA | 26600
FGFVFFVASLENGHYKFQFTNFAWTHMALYLIVCQAHFVMNNIFEGMIWFFLP | 66100
YASVLSLIMFFPLPFLSGEILDISRNCYILDVFFHWLMVVCGGLGSWAVFWST | 78700
ILRLWQIFWVAAKTDHMSYPRFEAPGCGDFCRDWKVLVAIILIRTKLTMGTRC | 52200
EIDEAAGEINEAAGEVNEAGEVDKAGEVDEAGEVNDEAGKIDKAAGEIDEAAG | 30600
EGAAAPAPAAAEKKEEPKKAETPKAEAPKAEAPKETSSRADAAKPAAAPKAAA | 39400
LGSCFLLSLVHPFFLLYYLYLRLLSLCFLYLRFVFFFCSPMSFFILLSIMSFL | 60100
FSLLSFCCLLVPLLLSYIPLTTSHVFPILLFFFTLPLTSALPLLLLYLFHELL | 47000
LIAGWCCLLSASCGIFYCIFRAIAIYVPEFNCRVVLWCFAILKVISILCHAAV | 32700
WLPNWLVPVMTAFSWMTWIAPKHRDLNILTGFNNGMGLLNFWPTWDWNVLLFT | 54200
MGFEVIFFFLLLGFFIQLLFILLIILLFLLFLVFLLFCYFVILFRLCACMMLY | 47900
MWSLCILLVGLLIWYIVFFSYPPPNRIYLFSPSLGVCLVSFFFFLWGLFGGVF | 53400
LLRFSLLLMFPWLVCLVSCFPCFPLLLPTSCATRFRFLHPFLTVSLLSLLFLC | 56800
RSKHWEMLSVLHAGMVLLTAWFFFHCIDLIIHLERARVAYGYIVVPALFDILR | 46500
FSWFALANIWLMFSIIIDLLPGQNIIIFGTADIICGTHWMNLVFKWIYLAFLV | 36900
TEAPKEEAAPAPVEEAPKQEEAPADAPAEEAAPAAAEEAPKETAAASPPKRGI | 47800
